According to patent US20230235012A1 (ALPINE IMMUNE SCIENCES, published 2023):
Residue numbers refer to the chain shown, from its start. In names and notes the source's numbering stands.

How the values were obtained:
human ICOS [1] = biological target: T1, human ICOS (human, UniProt Q9Y6W8 21-199); experiment: flow cytometry, transfected Expi293 cells; note: test concentration or dose not given here
T1 construct: whole, on cells
T1 sequence (looked up): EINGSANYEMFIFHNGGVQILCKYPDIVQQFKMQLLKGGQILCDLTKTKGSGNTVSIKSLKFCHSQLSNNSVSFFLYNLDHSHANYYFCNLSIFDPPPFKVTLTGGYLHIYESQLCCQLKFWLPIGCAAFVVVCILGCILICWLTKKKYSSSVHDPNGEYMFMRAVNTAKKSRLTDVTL

human CTLA-4 [2] = biological target: T2, human CTLA-4 (human, UniProt P16410 36-223); experiment: flow cytometry, transfected Expi293 cells; note: test concentration or dose not given here
T2 construct: whole, on cells
T2 sequence (P16410 36-223): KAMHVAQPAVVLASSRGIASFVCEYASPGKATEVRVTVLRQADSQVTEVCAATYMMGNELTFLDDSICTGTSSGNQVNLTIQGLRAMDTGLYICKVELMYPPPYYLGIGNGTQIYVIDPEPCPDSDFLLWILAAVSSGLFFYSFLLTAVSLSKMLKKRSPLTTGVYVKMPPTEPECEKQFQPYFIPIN

human CD28 = biological target: T3, human CD28 (human, UniProt P10747 19-220); experiment: flow cytometry, transfected cells; protein from CHO
T3 construct: whole, on cells

human ICOS [3] = biological target: T1, human ICOS; experiment: as above
human CTLA-4 [4] = biological target: T2, human CTLA-4; experiment: as above

B1: ICOSL ECD N52H/N57Y/Q100P - no linker - Fc C220S/L234A/L235E/G237A (Fc fusion)
chain: DTQEKEVRAMVGSDVELSCACPEGSRFDLNDVYVYWQTSESKTVVTYHIPQHSSLEYVDSRYRNRALMSPAGMLRGDFSLRLFNVTPQDEQKFHCLVLSPSLGFQEVLSVEVTLHVAANFSVPVVSAPHSPSQDELTFTCTSINGYPRPNVYWINKTDNSLLDQALQNDTVFLNMRGLYDVVSVLRIARTPSVNIGCCIENVLLQQNLTVGSQTGNDIGERDKITENPVSTGEKNAATEPKSSDKTHTCPPCPAPEAEGAPSVFLFPPKPKDTLMISRTPEVTCVVVDVSHEDPEVKFNWYVDGVEVHNAKTKPREEQYNSTYRVVSVLTVLHQDWLNGKEYKCKVSNKALPAPIEKTISKAKGQPREPQVYTLPPSREEMTKNQVSLTCLVKGFYPSDIAVEWESNGQPENNYKTTPPVLDSDGSFFLYSKLTVDKSRWQQGNVFSCSVMHEALHNHYTQKSLSLSPGK
notes: direct fusion, linker 'none'
An MFI (human ICOS [1]) of 97700 MFI was found for B1 in this work.

B2: ICOSL ECD N52H/N57Y/Q100R/F172S - no linker - Fc C220S/L234A/L235E/G237A (Fc fusion)
chain: B1 chain with P100R, F172S
notes: direct fusion, linker 'none'
An MFI (human ICOS [1]) of 106000 MFI was found for B2 in this work.

B3: ICOSL ECD N52H/N57Y/Q100P - no linker - Fc C220S/E233P/L234V/L235A/G236del/S267K (Fc fusion)
chain: DTQEKEVRAMVGSDVELSCACPEGSRFDLNDVYVYWQTSESKTVVTYHIPQHSSLEYVDSRYRNRALMSPAGMLRGDFSLRLFNVTPQDEQKFHCLVLSPSLGFQEVLSVEVTLHVAANFSVPVVSAPHSPSQDELTFTCTSINGYPRPNVYWINKTDNSLLDQALQNDTVFLNMRGLYDVVSVLRIARTPSVNIGCCIENVLLQQNLTVGSQTGNDIGERDKITENPVSTGEKNAATEPKSSDKTHTCPPCPAPPVAGPSVFLFPPKPKDTLMISRTPEVTCVVVDVKHEDPEVKFNWYVDGVEVHNAKTKPREEQYNSTYRVVSVLTVLHQDWLNGKEYKCKVSNKALPAPIEKTISKAKGQPREPQVYTLPPSREEMTKNQVSLTCLVKGFYPSDIAVEWESNGQPENNYKTTPPVLDSDGSFFLYSKLTVDKSRWQQGNVFSCSVMHEALHNHYTQKSLSLSPGK
notes: direct fusion, linker 'None'
An MFI (human ICOS [1]) of 98500 MFI was found for B3 in this work.

B4: ICOSL ECD N52H/N57Y/Q100P - G4S - Fc C220S/E233P/L234V/L235A/G236del/S267K (Fc fusion)
chain: DTQEKEVRAMVGSDVELSCACPEGSRFDLNDVYVYWQTSESKTVVTYHIPQHSSLEYVDSRYRNRALMSPAGMLRGDFSLRLFNVTPQDEQKFHCLVLSPSLGFQEVLSVEVTLHVAANFSVPVVSAPHSPSQDELTFTCTSINGYPRPNVYWINKTDNSLLDQALQNDTVFLNMRGLYDVVSVLRIARTPSVNIGCCIENVLLQQNLTVGSQTGNDIGERDKITENPVSTGEKNAATGGGGSEPKSSDKTHTCPPCPAPPVAGPSVFLFPPKPKDTLMISRTPEVTCVVVDVKHEDPEVKFNWYVDGVEVHNAKTKPREEQYNSTYRVVSVLTVLHQDWLNGKEYKCKVSNKALPAPIEKTISKAKGQPREPQVYTLPPSREEMTKNQVSLTCLVKGFYPSDIAVEWESNGQPENNYKTTPPVLDSDGSFFLYSKLTVDKSRWQQGNVFSCSVMHEALHNHYTQKSLSLSPGK
An MFI (human ICOS [1]) of 93400 MFI and an MFI (human CTLA-4 [2]) of 188000 MFI were found for B4 in this work.

B5: ICOSL ECD Truncation #5 with N52H/N57Y/Q100R/C198R, Fc fusion (Fc fusion)
chain: DTQEKEVRAMVGSDVELSCACPEGSRFDLNDVYVYWQTSESKTVVTYHIPQHSSLEYVDSRYRNRALMSPAGMLRGDFSLRLFNVTPQDEQKFHCLVLSRSLGFQEVLSVEVTLHVAANFSVPVVSAPHSPSQDELTFTCTSINGYPRPNVYWINKTDNSLLDQALQNDTVFLNMRGLYDVVSVLRIARTPSVNIGCRIENVLLQQGGGGSGGGGSEPKSSDKTHTCPPCPAPEAEGAPSVFLFPPKPKDTLMISRTPEVTCVVVDVSHEDPEVKFNWYVDGVEVHNAKTKPREEQYNSTYRVVSVLTVLHQDWLNGKEYKCKVSNKALPAPIEKTISKAKGQPREPQVYTLPPSREEMTKNQVSLTCLVKGFYPSDIAVEWESNGQPENNYKTTPPVLDSDGSFFLYSKLTVDKSRWQQGNVFSCSVMHEALHNHYTQKSLSLSPG
notes: not restated for the C198R set
With B5 the MFI (human CD28) was 86300 MFI, the “MFI ratio to WT” value (human CD28) was 50 fold and the MFI (human ICOS [3]) was 110000 MFI. For the same binder, the “MFI ratio to WT” value (human ICOS [3]) was 1.1 fold, the MFI (human CTLA-4 [4]) was 216000 MFI and the “MFI ratio to WT” value (human CTLA-4 [4]) was 28.5 fold.
